Three molecules from article PMC12738837, “Structure of Trypanosoma peroxisomal import complex unveils conformational heterogeneity” (Nature Communications, 2025) can be followed below.

First the molecules themselves.
B1: glycosomal malate dehydrogenase (MDH, residues 1–323) (enzyme, Trypanosoma cruzi, UniProt Q4DRD8 1-323, looked up)
chain: MVNVAVIGAAGGIGQSLSLLLLRELPFGSTLSLYDVVGAPGVAADLSHIDRAGITVKHAAGKLPPVPRDPALTELAEGVDVFVIVAGVPRKPGMTRDDLFNVNAGIVMDLVLTCASVSPNACFCIVTNPVNSTTPIAAQTLRKIGVYNKNKLLGVSLLDGLRATRFINNARHPLVVPYVPVVGGHSDVTIVPLYSQIPGPLPDESTLKEIRKRVQVAGTEVVKAKAGRGSATLSMAEAGARFTMHVVKALMGLDTPMVYAYVDTDGEHECPFLAMPVVLGKNGIERRLPIGPITTVEKEMLEEAVGVVKKNIAKGETFARSKL
notes: glycosomal malate dehydrogenase (MDH), Trypanosoma cruzi, residues 1-323, UniProt Q4DRD8; Tetramer (two dimers related by D2 symmetry) by cryo-EM; also called cargo; MDH tetramer; source: E. coli BL21 (DE3), purified (Ni-NTA, SEC)
B2: PTS1 peptide derived from MDH (NH2-ARSKL-COOH) (peptide)
peptide: H-ARSKL-OH
notes: short peptide encompassing PTS1 of T. cruzi glycosomal MDH, residues 319-ARSKL-323; also called MDH-derived PTS1 peptide
B3: full length Pex5 (residues 1–666) (receptor, Trypanosoma cruzi, UniProt Q4DPQ9 1-668, looked up)
chain: MDCSTGAAIGQQFAKDAFHMHGGVGVGPTGNPEHDVLMNEMMMVQTPTGPAGEWTHQFAAYQGKQQQQHPQELAMRHQQNDALMLRQQQEMEEAFCTLCAAHPHSHAHSHAHSHQPQGLVGPAMMGPQIMPPMMFGPGSGGFMMGTPPMMPYASMKFAGDAAMAAANNTTMTQGATATSTTSVQQEQQQQQSSDNGWVEKLRDAEWAQDYSDAQVFTLEGQSEQTMEEHAKNSEFYQFMDKIRSKELLIDEETGQLVQGPGPDPDAPEDAEYLKEWAAAEGLNMPPGFFEHMMQRPQGNNEQAEGRLFDGSNDALMDDGALDNAADVEEWAREYAEAQEQLQRVQNETNYPFEPNNPYMYHDKPMEEGIAMLQLANMAEAALAFEAVCQKEPENVEAWRRLGTTQAENEKDCLAIIALNHARMLDPKDIAVHAALAVSHTNEHNVGAALQSLRSWLLSQPQYEHLGLVDLQEVAADEGLDEVPEENYFFAAPSEYRDCCTLLYAAVEMNPNDPQLHASLGVLHNLSHRFDEAAKNFRRAVELRPDDAHTWNKLGATLANGNRPQEALEAYNRALDINPGYVRVMYNMAVSYSNMAQYPLAAKHITRAIALQAGGTNPQGEGSRIATRGLWDLLRMTLNLMDRSDLVEASWQQDLTPFLKEFGLEDMAV
notes: Pex5, Trypanosoma cruzi, full length, residues 1-666, GenBank PBJ69826.1; Contains three Wxxx(F/Y) motifs; source: E. coli BL21 (DE3), purified (Ni-NTA, SEC)

Data set [1] addresses T1, Pex5_(eTPR) (residues 314–666), truncated Pex5 containing an extended TPR domain with a single Wxxx(F/Y) motif (Trypanosoma cruzi, UniProt Q4DPQ9 316-668). The data set can be described thus: ITC; Pex5_(eTPR) (250 μM) injected into MDH (25 μM) in the cell; 100 mM Hepes, 150 mM NaCl, 2 mM β-mercaptoethanol, pH 7.5; 25 °C. As to conditions: both partners purified.
The target in a further data set is T2, Pex5_(eTPR)(P490R) (Trypanosoma cruzi, UniProt Q4DPQ9 316-668, P490R).
T2 construct: source: E. coli BL21 (DE3), purified as wild type (Ni-NTA, SEC)
T2 sequence: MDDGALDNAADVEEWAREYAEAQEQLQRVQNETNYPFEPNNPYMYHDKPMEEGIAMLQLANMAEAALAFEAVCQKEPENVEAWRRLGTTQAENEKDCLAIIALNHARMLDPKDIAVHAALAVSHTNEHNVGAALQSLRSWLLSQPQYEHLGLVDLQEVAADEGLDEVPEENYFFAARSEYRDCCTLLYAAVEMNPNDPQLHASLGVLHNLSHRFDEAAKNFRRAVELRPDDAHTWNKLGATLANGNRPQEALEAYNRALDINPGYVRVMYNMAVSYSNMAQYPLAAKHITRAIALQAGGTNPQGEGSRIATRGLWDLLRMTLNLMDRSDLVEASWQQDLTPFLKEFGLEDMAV
The data set is described as above. As to conditions: both partners purified.

Data set [2] addresses T3, Pex5_(eTPR)(R625A, D629A) (Trypanosoma cruzi, UniProt Q4DPQ9 316-668, R625A | D629A).
T3 construct: source: E. coli BL21 (DE3), purified as wild type (Ni-NTA, SEC)
T3 sequence: T2 sequence with R177P, R312A, D316A
The description is as above. As to conditions: both partners purified.

Data set [3] deals with the molecule itself. The data set can be described thus: cryo-EM structure; ternary complex: purified MDH (tetramer), full-length Pex5 and Pex14NTD mixed at 1:4:12, overnight at 4 °C, separated on Superose6 10/300, vitrified at ~0.75 mg/mL; no cross-linking; MDH alone solved from the same dataset.
For data set [4], the target named is T1, Pex5_(eTPR) (residues 314–666), …. The data set can be described thus: ITC; Pex5_(eTPR) with the PTS1 peptide (NH2-ARSKL-COOH); who was in the cell is not stated for the peptide; 25 °C. The settings on record: both partners purified.
The target of data set [5] is 6-FAM labeled PTS1 peptide. The data set can be described thus: fluorescence polarisation.
Data set [6] concerns the target B1. The data set can be described thus: cryo-EM structure; ternary complex: purified MDH (tetramer), full-length Pex5 and Pex14NTD mixed at 1:4:12, overnight at 4 °C, separated on Superose6 10/300, vitrified at ~0.75 mg/mL; no cross-linking; MDH alone solved from the same dataset. As to conditions: both partners purified.

Positions count from the first letter of the chain named. “And” between values parts separate entries of the source, which are not always exact repeats. Equal entries are not always repeated.

With B1, the dissociation constant (Kd) amounted to 435 ± 80 nM in data set [1], 1390 ± 226 nM with Pex5_(eTPR)(P490R) and 453 ± 64 nM in data set [2]. The “stoichiometry N” value in data set [3] amounted to 4.
Regarding B2, the equilibrium dissociation constant (Kd) in data set [4] amounted to 135 ± 19 nM.
Turning to B3, the dissociation constant (Kd) in data set [5] was 88 nM. In addition, the “stoichiometry N” value in data set [6] is 1 Pex5 per MDH tetramer and 2 Pex5 per MDH tetramer.
